Experiments:
[1] = molecular target: T1, bovine pancreatic trypsin (Bos taurus, UniProt P00760); assay: Isothermal titration calorimetry (ITC) of binding to bovine pancreatic trypsin; conditions: for Stoichiometry / Ka (association constant) / ΔH / ΔS: ITC; for Binding to trypsin by ITC (in words): all experimental conditions, FIGS. 6 and 7
T1 sequence (P00760 24-246): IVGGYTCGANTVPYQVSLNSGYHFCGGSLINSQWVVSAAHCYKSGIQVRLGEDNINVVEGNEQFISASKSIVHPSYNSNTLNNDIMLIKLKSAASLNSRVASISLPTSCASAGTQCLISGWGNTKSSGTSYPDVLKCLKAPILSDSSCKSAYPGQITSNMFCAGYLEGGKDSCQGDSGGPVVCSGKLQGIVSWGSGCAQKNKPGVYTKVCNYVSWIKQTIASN
Experimental: Isothermal titration calorimetry (ITC) was performed with a VP-ITC instrument from MicroCal, inc. Titrations were carried out by injecting 5 μL of an inhibitor solution (at concentration ranges from 0.5 mM to 2.0 mM) into the 1.4 mL stirred reaction cell. APP and APP derivatives ranged in concentration from 50 to 80 μM in the cell. […] Titrations were conducted between 20° C. and 40° C. Typical experimental conditions for the titrations were a 10 second injection period followed by a 240 second delay between injections for a total of 40 injections. Blank titrations of inhibitor into buffer were performed in order to correct for heats of dilution and mixing.
The independent set of multiple binding sites is the most common model for binding experiment evaluations. The analytical solution for the total heat is determined by (Freire et al., 1990): [formula]
where Q is the total heat, V is the cell volume, ΔH is the enthalpy, M is the macromolecule concentration (the binding partner in the cell), n is the binding stoichiometry, L is the ligand concentration (the binding partner in the syringe), and K is the association constant. Data were fit to this model using Origin version 5 (MicroCal, Inc.).
The association constant is related to the van't Hoff enthalpy according to the following relationship: [formula]
The free energy of binding is related to the binding enthalpy by:
or with the incorporation of heat capacity data according to the Gibbs-Helmholtz equation: [formula]
where ΔG is the Gibbs free energy of binding, T0 is the reference temperature, and ΔCp is the heat capacity. The value of ΔCp is calculated from determining the calorimetric enthalpy at two different temperatures: [formula]
By measuring the apparent enthalpy of binding in two different buffers of known enthalpy of ionization, it is possible to measure the net number of protons transferred during the binding events:
where ΔHcor is the actual heat of binding at the pH measured. The sign indicates the direction of proton transfer.

[2] = molecular target: T1, bovine pancreatic trypsin; assay: Surface plasmon resonance (BiaCore-X), trypsin flowed over immobilized peptide; format: binding; conditions: peptide coupled to CM-5 chip by thiol, trypsin 1 to 100 nM in PBS, FIG. 12
Experimental: The BiaCore, Inc. BiaCore-X surface plasmon resonance (SPR) device was utilized to measure the interaction between bovine pancreatic trypsin and SAP-1 or SAP-2. For these experiments a carboxymethyl dextran sensor chip (CM-5) was activated with 50 mM N-hydroxysuccinimide, 0.2 M N-ethyl-N′-(dimethylaminopropyl)-carbodiimide at a flow rate of 10 μL per minute for ten minutes. The thiol coupling agent PDEA (2-(2-pyridinyldithio)ethaneamine hydrochloride) at a concentration of 80 mM was passed over the activated surface at a flow rate of 10 μL per minute for five minutes. SAP-1 or SAP-2 at a concentration of 50 ng/μL was coupled to the activated surface at a flow rate of 10 μL per minute for ten minutes. The final surface was inactivated by flowing 50 mM 1-cysteine, 1 M NaCl at a rate of 10 μL per minute for five minutes over the sensor surface. Buffer was switched to phosphate buffered saline (PBS) and bovine pancreatic trypsin was flowed over the sensor surface at a rate of 20 μL per minute, and at concentrations that ranged from 1 to 100 nM.
For this reaction of the type, A+B⇄AB, where A is the free flowing ligand and B is the immobilized ligand, the change in the SPR signal (R) is proportional to formation (for the association phase) or to the dissociation (for the dissociation phase) of the complex AB.
for the association phase. Rmax is the measured response if all of the binding sites in the bound species were occupied, c is the ligand concentration, and Rb is the shift in the baseline signal upon ligand injection. The dissociation phase is evaluated by:
where R0 is the SPR signal at the start of dissociation. A FFT routine separately smoothed the association and dissociation portions of the binding isotherm. Final kinetic analysis (O'Shannessy et al., 1993) was performed using Origin from Microcal, Inc.

[3] = Chemical denaturation: unfolding in urea by intrinsic tryptophan fluorescence; format: physicochemical; conditions: for m1/2 value of unfolding: 20 μM protein; for m1/2 value of unfolding / Native free energy (ΔG in absence of denaturant): room temperature; for Native free energy (ΔG in absence of denaturant): extrapolated to zero urea
Experimental: Stability measurements of the protein were performed by measuring protein unfolding in the presence of urea via intrinsic tryptophan fluorescence (Lakowicz, 1983) in a Shimadzu RF5301 fluorometer. The excitation and emission wavelengths were 295 nm and 340 nm respectively. Both excitation and emission monochrometer slits were set at 1.5 nm. Protein (20 μM) was mixed with increasing amounts of urea (in the concentration range of zero to 6.8 M), and the samples were incubated at room temperature for ten hours to ensure that unfolding equilibrium had been achieved. Relative fluorescence was converted into free energy values according to the relation (Pace et al., 1989): [formula]
where yf and yu are the relative fluorescence values for fully folded and fully unfolded DST respectively, yi is the relative fluorescence of the unfolding intermediates, T is the absolute temperature, and R is the gas constant. Linear regression and extrapolation of the relationship ΔG versus [urea] was employed to determine the free energy value in the absence of denaturant (ΔGH2O). Similarly, the fraction unfolded protein (Fu) was calculated from the fluorescence data according to the relation (Pace et al., 1989): [formula]

Sequence: CPSQPTYPGDPYKLKY GPVEDLIRFYDNLQQWLNCVTAAC (CPSQPTYPGDPYKLKYGPVEDLIRFYDNLQQWLNCVTAAC; A peptide-based reagent that combines the SEQ ID NO18 interactive domain with the SEQ ID NO11 peptide backbone.) [SAP-2, SAP backbone with library program-selected YKLKY insert]
- Stoichiometry ([1]; 25° C., 20 mM cacodylate pH 7.0, FIG. 8): 0.995 +/− 0.06
- Ka (association constant) ([1]; 25° C., FIG. 8): 640000 ± 5300 M⁻¹
- ΔH ([1]; 25° C., FIG. 8): -31.2 ± 2.30 kcal/mol
- ΔS ([1]; 25° C., FIG. 8): −16.2 +/− 1.22 cal mol^−1 K^−1
- Binding affinity compared with the peptide having SEQ ID NO:21 (in words) ([1]; bovine pancreatic trypsin): slightly lower binding affinity
- Kinetic rate constant ka (association) [2]: 8.2×10^4
- Kinetic rate constant kd (dissociation) [2]: 6.9×10^−2
- Stabilization of the native state relative to SAP [3]: 2.1 kcal/mol
- Stabilization of the native state relative to SAP-1 [3]: 0.1 kcal/mol
- m1/2 value of unfolding [3]: 4.05 M urea

Sequence: CPSQPTYPGDPGPVEDLIRFYDNLQQWLNCVTAAC [SAP]
- Binding to trypsin by ITC (in words) [1]: no detectable binding
- Binding to trypsin by ITC (in words), FIG. 6 titration ([1]; peptide 2 mM, trypsin 20 μM, 20 mM cacodylate pH 7.0, 20 mM NaCl, 30° C.): No binding is evident
- m1/2 value of unfolding [3]: 2.5 M urea
- Dimerization seen in the unfolding curve (in words) ([3]; FIG. 9): no dimerization phenomenon
- Native free energy (ΔG in absence of denaturant) [3]: -3.1 kcal/mol

Sequence: CPSQPTYPGDPPYRIRFGPVEDLIRFYDNLQQWLN CVTAAC (CPSQPTYPGDPPYRIRFGPVEDLIRFYDNLQQWLNCVTAAC; A peptide-based reagent that combines the SEQ ID NO15 interactive domain with the SEQ ID NO11 peptide backbone.) [SAP-1]
- Stoichiometry ([1]; 293 K (20° C.), 20 mM cacodylate pH 7.0, 20 mM NaCl, FIG. 7): 0.975 +/− 0.02
- Ka (association constant) ([1]; 293 K, FIG. 7): 1.65e+06 ± 45000 M⁻¹
- ΔH ([1]; 293 K, FIG. 7): -26.1 ± 1.45 kcal/mol
- ΔS ([1]; 293 K, FIG. 7): −11.6 +/− 2.2 cal mol^−1 K^−1
- Ka (association constant) ([1]; 303 K): 2.4e+06 ± 37000 M⁻¹
- ΔH ([1]; 303 K): -15.4 ± 2.05 kcal/mol
- ΔS ([1]; 303 K): −21.1 +/− 1.8 cal mol^−1 K^−1
- Stoichiometry ([1]; higher temperature, 303 K): 0.99 +/− 0.03
- Binding to trypsin by ITC (in words) [1]: remarkable binding specificity for trypsin
- ΔCp (heat capacity of binding) ([1]; from calorimetric enthalpy at 293 K and 303 K): −0.51 kcal/mol K
- Kinetic rate constant ka (association) [2]: 1.3×10^5
- Kinetic rate constant kd (dissociation) [2]: 1.7×10^−2
- Stabilization of the native state relative to SAP [3]: 2.0 kcal/mol
- m1/2 value of unfolding [3]: 4.0 M urea
- Native free energy (ΔG in absence of denaturant) [3]: -5.1 kcal/mol

From patent US6822073B2, “Modular peptide-based reagent” (Kimberly-Clark Worldwide, Inc., priority 2001, dated 2004)
